# Measurements from article PMC8115288.
# B1: GST-CTD (C-terminal domain of HIV-1 integrase, aa 201-288) [HIV-1 His6-SUMO-INI1_(183-304) [not stated] (parent)
# chain 1: VDIIATDIQTKELQKQITKIQNFRVYYRDSRNPLWKGPAKLLWKGEGAVVIQDNSDIKVVPRRKAKIIRDYGKQMAGDDCVASRQDED
# chain 2: PEVLVPIRLDMEIDGQKLRDAFTWNMNEKLMTPEMFSEILCDDLDLNPLTFVPAIASAIRQQIESYPTDSILEDQSDQRVIIKLNIHVGNISLVDQFEWDMSEKENSPEKFALKLCSELGLG
# Variants of: B1
# Experiment: Alpha assay
# Conditions: with His6-SUMO-INI1_(183-304); low salt conditions; parent: 100; read off a plot
row,Variant,percent of parent
1,chain 1 R28A,8 % of WT
